Data from PMC8964413 (Nature chemical biology, 2022).
Positions count from the first letter of the chain named. In names and notes the source's numbering stands.

B1: UBE2K^WT (enzyme)
chain: MANIAVQRIKREFKEVLKSEETSKNQIKVDLVDENFTELRGEIAGPPDTPYEGGRYQLEIKIPETYPFNPPKVRFITKIWHPNISSVTGAICLDILKDQWAAAMTLRTVLLSLQALLAAAEPDDPQDAVVANQYKQNPEMFKQTARLWAHVYAGAPVSSPEYTKKIENLCAMGFDRNAVIVALSSKSWDVETATELLLSN
B2: UBE2K^C92K,K97R,D124C,C170S (enzyme)
chain: B1 chain with C92K, K97R, D124C, C170S

Assays:
[1] = target: unanchored wild-type K63-linked di-Ub (UniProt P0CG48); test: cell-based or functional assay
[2] = target: donor ubiquitin (Ub^D), from His-TEV-Ub^WT (UniProt P0CG48 1-76, in the crystal: G76 isopeptide-linked to K92 of UBE2K); test: crystal structure

Row | Binder | k cat/K m of tri-Ub formation, K63-Ub2 as acceptor [1] [M⁻¹ s⁻¹] | binding result [2]
1 | B1 | 418 | –
2 | B2 | – | binds
